The target of one assay is GST-Src SH3 domain (UniProt P12931 84-145). As to the kind of experiment: GST pull-down, lysate in SDS containing RIPA buffer. The method, then: (§1) In transient expression studies, with epitope tagged DOS constructs in both 293T cell and COS cells, a protein of the expected size is readily detected after cell lysis with buffers containing detergents, such as RIPA.
(§2) After incubating epitope tagged DOS lysates in SDS containing RIPA buffer with beads carrying GST-Crk-N terminal SH3 domain, DOS+SSB and DOS−SSB was “pulled down”. […] No binding to DOS−SSB was observed. […] The proline rich, C terminus of DOS engages with Src and Crk and the loss of Crk binding is seen in human cancer. Furthermore, no binding to SH3 domain of Abl and Crk-C terminus was observed.

Assay [1] concerns the target T1, DOS+SSB P>L (DOS+SSB with the proline to leucine mutation at amino acid 1718), epitope tagged (human, UniProt Q8N1I0 1-1966).
T1 construct: Used as lysate of transfected cells; also called DOS+SSB with proline mutation; DOS with the proline mutation
The description is as above. As for the experimental part: as §1, §2

The target in assay [2] is T2, DOS+SSB (human DOS protein of 1966 amino acids, with Src SH3 domain binding site), epitope tagged (human, UniProt Q8N1I0 1-1966).
T2 construct: Full-length isoform cloned in pcDNA3.1, transiently expressed in 293T or COS cells and used as cell lysate in RIPA buffer; also called DOCK 3; Deleted in Osteosarcoma
Briefly: pull-down with SH3 domains. The method, then:
as §1, §2

Data on three molecules can be found in patent publication US20060041111A1 (published 2006).

B1: DOS-SSB (alternatively spliced human DOS protein of 1928 amino acids, without Src SH3 domain binding site), epitope tagged (other, not shown: small tags and cut ends)
chain: MWIPTEHEKYGVVIASFRGTVPYGLSLEIGDTVQILEKCDGWYRGFALKNPNIKGIFPSSYVHLKNACVKNKGQFEMVIPTEDSVITEMTSTLRDWGTMWKQLYVRNEGDLFHRLWHIMNEILDLRRQVLVGHLTHDRMKDVKRHITARLDWGNEQLGLDLVPRKEYAMVDPEDISITELYRLMEHRHRKKDTPVQASSHHLFVQMKSLMCSNLGEELEVIFSLFDSKENRPISERFFLRLNRNGLPKAPDKPERHCSLFVDLGSSELRKDIYITVHIIRIGRMGAGEKKNACSVQYRRPFGCAVLSIADLLTGETKDDLILKVYMCNTESEWYQIHENIIKKLNARYNLTGSNAGLAVSLQLLHGDIEQIRREYSSVFSHGVSITRKLGFSNIIMPGEMRNDLYITIERGEFEKGGKSVARNVEVTMFIVDSSGQTLKDFISFGSGEPPASEYHSFVLYHNNSPRWSELLKLPIPVDKFRGAHIRFEFRHCSTKEKGEKKLFGFSFVPLMQEDGRTLPDGTHELIVHKCEENTNLQDTTRYLKLPFSKGIFLGNNNQAMKATKESFCITSFLCSTKLTQNGDMLDLLKWRTHPDKITGCLSKLKEIDGSEIVKFLQDTLDTLFGILDENSQKYGSKVFDSLVHIINLLQDSKFHHFKPVMDTYIESHFAGALAYRDLIKVLKWYVDRITEAERQEHIQEVLKAQEYIFKYIVQSRRLFSLATGGQNEEEFRCCIQELLMSVRFFLSQESKGSGALSQSQAVFLSSFPAVYSELLKLFDVREVANLVQDTLGSLPTILHVDDSLQAIKLQCIGKTVESQLYTNPDSRYILLPVVLHHLHIHLQEQKDLIMCARILSNVFCLIKKNSSEKSVLEEIDVIVASLLDILLRTILEITSRPQPSSSAMRFQFQDVTGEFVACLLSLLRQMTDRHYQQLLDSFNTKEELRDFLLQIFTVFRILIRPEMFPKDWTVMRLVANNVIITTVLYLSDALRKNFLNENFDYKIWDSYFYLAVIFINQLCLQLEMFTPSKKKKVLEKYGDMRVTMGCEIFSMWQNLGEHKLHFIPALIGPFLEVTLIPQPGLRNVMIPIFHDMMDWEQRRSGNFKQVEAKLIDKLDSLMSEGKGDETYRELFNSILLKKIERETWRESGVSLIATVTRLMERLLDYRDCMKMGEVDGKKIGCTVSLLNFYKTELNKEEMYIRYIHKLYDLHLKAQNFTEAAYTLLLYDELLEWSDRPLREFLTYPMQTEWQRKEHLHLTIIQNFDRGKCWENGIILCRKIAEQYESYYDYRNLSKMRMMEASLYDKIMDQQRLEPEFFRVGFYGKKFPFFLRNKEFVCRGHDYERLEAFQQRMLNEFPHAIAMQHANQPDETIFQAEAQYLQIYAVTPIPESQEVLQREGVPDNIKSFYKVNHIWKFRYDRPFHKGTKDKENEFKSLWVERTSLYLVQSLPGISRWFEVEKREVVEMSPLENAIEVLENKNQQLKTLISQCQTRQMQNINPLTMCLNGVIDAAVNGGVSRYQEAFFVKEYILSHPEDGEKIARLRELMLEQAQILEFGLAVHEKFVPQDMRPLHKKLVDQFFVMKSSLGIQEFSACMQASPVHFPNGSPRVCRNSAPASVSPDGTRVIPRRSPLSYPAVNRYSSSSLSSQASAEVSNITGQSESSDEVFNMQPSPSTSSLSSTHSASPNVTSSAPSSARASPLLSDKHKHSRENSCLSPRERPCSAIYPTPVEPSQRMLFNHIGDGALPRSDPNLSAPEKASPARHTTSVSPSPAGRSPLKGSVQSFTPSPVEYHSPGLISNSPVLSGSYSSGISSLSRCSTSETSGFENQVNEQSAPLPVPVPVPVPSYGGEEPVRKESKTPPPYSVYERTLRRPVPLPHSLSIPVTSEPPALPPKPLAARSSHLENGARRTDPGPRPRPLPRKVSQL
notes: Used as lysate of transfected cells
Turning to B1, the binding result with GST-Src SH3 domain is “no binding”.

B2: GST-Crk-N terminal SH3 domain (other, UniProt P46108 132-192, looked up)
chain: EEAEYVRALFDFNGNDEEDLPFKKGDILRIRDKPEEQWWNAEDSEGKRGMIPVPYVEKYRP
notes: domain: N terminal SH3 domain; GST fusion on beads for the pull-down; also called adaptor protein Crk; not shown: glutathione S-transferase (GST) fusion partner
Turning to B2, in assay [1], the binding result is “no binding”.

B3: SH3 domain of Crk-C terminus (other, UniProt P46108 235-296, looked up)
chain: NGPIYARVIQKRVPNAYDKTALALEVGELVKVTKINVSGQWEGECNGKRGHFPFTHVRLLDQ
notes: domain: SH3 domain of Crk-C terminus
Turning to B3, the binding result in assay [2] is given as “no binding”.
